Results from PMC7954794, “Protein context shapes the specificity of SH3 domain-mediated interactions in vivo” (Nature Communications, 2021).

How the values were obtained:
Assay type in all cases: cell-based, Saccharomyces cerevisiae
[1] = system: 575 putative partners (preys) of 22 WT SH3-containing proteins; experiment: DHFR-PCA on solid medium, WT and SH3-deleted baits (Fig. 1B); design: key to Score: 0: SH3-independent; 1: SH3-dependent PPIs; 2: SH3-inhibited PPIs; details: for medrep (log2 median colony size normalized to plate background, PCA score): label = prey; for Ratio (SH3-deleted/WT medrep): only significant differences shown, PPIs completely lost have a ratio of 0.1, gained PPIs 2.5
From the text: To assess the requirement of SH3 domains for PPIs in vivo, we first measured binary interactions between 22 WT SH3-containing proteins (Supplementary Fig. 1A) as baits and 575 putative partners from their interconnected signaling networks using the dihydrofolate reductase protein–fragment complementation assay (DHFR-PCA) in the budding yeast Saccharomyces cerevisiae. About 33% (202/607) of the PPIs detected were described before, mostly by direct methods (Supplementary Fig. 1B, C)[11]. We repeated the experiments with baits in which the SH3s were individually replaced with a flexible linker by genome editing (SH3 domain deletion/stuffing, Fig. 1A). The stuffer DNA sequence ([…]) codes for a small flexible poly-Gly with Ser peptide ([…]) that is inspired by previous experiments[12],[13]. About a third of the SH3-containing protein interactome is qualitatively or quantitatively SH3-dependent (171 PPIs out of 607, Fig. 1B and Supplementary Fig. 1B, C). We validated the vast majority of the quantitative changes in low-throughput experiments and excluded that this is simply due to changes in protein abundance in most cases (Supplementary Fig. 1D–G). SH3-binding motifs[14] are more frequent in the SH3-dependent PPI partners when compared to sequences from random proteins, SH3-independent PPI partners or PPI partners that are stronger or gained following SH3 deletions (p values = 1.5 × 10^−17, 0.0038 and 2.1 × 10^−08, respectively; Mann–Whitney test, one-tailed, Fig. 1C). The changes we measure are therefore enriched for PPIs that depend on the direct interactions of the domains with the PPI partners.
The complete list of strains, primers, and gRNAs used in this study can be found in Supplementary Tables 1–3. All constructed yeast strains were validated by polymerase chain reaction (PCR) and confirmed by Sanger sequencing of the locus of interest. Bait strains for the DHFR-PCA experiments were constructed as follows. The genes of interest were fused at their genomic 3′ end by replacing the stop codon with a linker ([…]), the DHFR F[1,2] followed by a smaller linker (GGGGS), a 1× FLAG tag ([…]) and the NATMX4 resistance cassette via homologous recombination (all amplified from pAG25-DHFR[1,2]-linker-FLAG). The set of 615 prey strains (DHFR F[3] fusions in the BY4742 background) were retrieved from the Yeast Protein Interactome Collection[43] with the exception of 73 that were reconstructed (Supplementary Tables 1 and 2). Knockout strains were taken from the yeast knockout collection except for ABP1, BEM1, BZZ1, and SLA1, which were reconstructed by replacing the ORFs with the NATMX4 resistance cassette by homologous recombination in the BY4741 background.
Yeast SH3 domain genomic sequences were replaced by CRISPR–Cas9 genome editing. Each SH3 domain (as defined by the SMART database V8.0 except for Ysc84 SH3 (as defined by PROSITE), see Source Data for all SH3 sequences and Supplementary Table 1 for primers used) was specifically targeted by one gRNA[46]. Yeast competent cells were co-transformed with a pCAS plasmid (Addgene plasmid 60847[47]) expressing both the gRNA of interest and Streptococcus pyogenes Cas9[46] and a donor DNA sequence (stuffer) with 60 bp homology arms surrounding the SH3 DNA sequence. The Stuffer DNA was either PCR amplified or digested from a plasmid. The stuffer DNA sequence ([…]) codes for a small flexible linker ([…]) inspired by protein linkers used in structural biology[12],[13]. This type of linker is frequently used for fusing proteins without affecting the structure of the linked proteins.
The overall DHFR-PCA pipeline is based on Tarassov et al.[43] and the procedures have also been published as a visualized protocol. The screens were performed with robotically manipulated pin tools (BM5-SC1, S&P Robotics Inc.). First, the preys were cherry-picked from 96-well plates to omnitrays in a 384 format on YPD + HPH solid media. […]

ABP1 = experiment: DHFR-PCA on solid medium, bait ABP1 (Fig. 1B); details: bait ABP1, label = prey; for medrep (log2 median colony size normalized to plate background, PCA score): 2-4 replicates
From the text: Supplement 41467_2021_21873_MOESM8_ESM.xlsx, sheet "Fig1B" | column: medsize; medrep; Ratio; Score

Abp1 PPIs = experiment: DHFR-PCA of Abp1 SH3-swapped baits (Fig. 2B-D, S2C, S2F); details: Fig2B; bait ABP1, label = prey; Replicates 4
From the text: Having determined that multiple PPIs require SH3s, we asked whether the latter establish PPI specificity independently from their host proteins by swapping domains (Fig. 2A). Using the second round of genome editing, we individually replaced Abp1 SH3 with the 27 yeast SH3s and 3 human Abp1 orthologs’ SH3s (CTTN, HCLS1, and DBNL, Fig. 2B). The reintroduction of its own SH3 (Abp1SH3 in Abp1) reconstitutes almost perfectly Abp1’s interaction profile (Kendall’s τ = 0.93, Fig. 2B). […] No homologous SH3 domain fully re-establishes the normal Abp1 PPI profile (Fig. 2B and Supplementary Fig. 2C). However, we observe a significant correlation (cophenetic correlation = 0.20, p value = 0.005, Fig. 2C) between the similarity of PPI profiles (Fig. 2B) and the sequence similarity of the SH3s. […] Nonetheless, a subset of SH3-dependent PPIs is only observed with the endogenous domain. For instance, Hua2 and App1, both well-characterized partners of Abp1[14],[18],[19], are only detected when Abp1 contains its own SH3 (WT or swapped via editing). A given SH3 may therefore not be fully replaceable with other paralogous or orthologous domains. This pattern is confirmed by cellular growth phenotypic analyses (Supplementary Fig. 2D, E). PPIs, SH3 sequence similarity, and growth profiles under stress conditions are correlated (Supplementary Fig. 2D, E). This relationship is particularly clear when analyzing growth on media supplemented with hygromycin.
The stuffing of YSC84 SH3 rendered the strain sterile and was therefore not used for this study as the assays require crosses. For genes containing two SH3s (BZZ1 and BEM1), a combination of this first stuffer with a second one ([…]) coding for a highly similar linker ([…]) was used, which allowed targeting each SH3 position independently. The two N-terminal domains of SLA1, which are separated by six nucleotides, were stuffed by a single stuffer. Cells containing pCAS were selected via the G418 resistance cassette from the plasmid on YPD plates (YPD + NAT 100 μg/ml (DHFR F[1,2] selection) + G418 200 µg/mL (Bioshop Canada)). Colonies were randomly selected and grown in YPD media without G418 to allow plasmid loss. The correct insertion of the stuffer was validated by PCR and Sanger sequencing. The SH3-swapped, -shuffled, and -mutated strains were constructed following a second CRISPR–Cas9 editing step with the same procedures. The stuffer sequences were targeted by specific gRNAs (one gRNA per stuffer) and replaced by PCR amplified specific SH3 (with 40 bp homology arms) or libraries of mutated SH3 domains for Deep Mutational Scanning (DMS) with 78 bp flanking homology regions. Validation of the SH3 domain insertions was done as we previously described except for DMS libraries (see below).
The overall DHFR-PCA pipeline is based on Tarassov et al.[43] and the procedures have also been published as a visualized protocol. The screens were performed with robotically manipulated pin tools (BM5-SC1, S&P Robotics Inc.). First, the preys were cherry-picked from 96-well plates to omnitrays in a 384 format on YPD + HPH solid media. Plates were then combined into the 1536 format on YPD + HPH. The array was constituted of 575 preys previously shown to interact physically with at least one SH3-containing protein as reported in BioGRID V3.4.16 along with 40 negative controls. The prey array comprised a border of control strains of two rows and two columns corresponding to the PPI between LSM8-DHFR F[1,2] and CDC39-DHFR F[3]. This double border was used to remove border effects. Preys are present in duplicate at a randomized position in the 1536 array (except for YAL041W which is present four times per array). Baits were crossed with two prey plates, resulting in four independent bait–prey tests for each PPI. Baits were grown in liquid YPD + NAT and then transferred on solid YPD + NAT omnitrays. They were then replicated on YPD + NAT omnitrays in 1536 array format. […]

[2] = bait SLA1-2, DHFR-PCA, Replicates 4 (2 for YCR009C, YDR388W)
[3] = bait SLA1-3, DHFR-PCA, Replicates 4 (2 for YCR009C, YDR388W, YIL033C)

B1: YIL095W (protein, UniProt P40494 1-810, looked up)
Actin-regulating kinase PRK1: MNTPQISLYEPGTILTVGSHHAKIIKYLTSGGFAQVYTAEISPPDPYSNANIACLKRVIVPHKQGLNTLRAEVDAMKLLRNNKHVVSYIDSHAARSVNGIAYEVFVLMEFCERGGLIDFMNTRLQNRLQESEILEIMSQTVQGITAMHALQPPLIHRDIKIENVLISHDGLYKVCDFGSVSGVIRPPRNTQEFNYVQHDILTNTTAQYRSPEMIDLYRGLPIDEKSDIWALGVFLYKICYYTTPFEKSGEAGILHARYQYPSFPQYSDRLKNLIRLMLMEAPSQRPNICQVLEEVSRLQNKPCPIRNFYLLRAMNQNANTQLAGEPSSTTYVPTQKFIPVQSLQSINQPPNMMPVTHVSTTPNLGTFPISINDNNKTEVTAHAGLQVGSHSNLTSPLMKTKSVPLSDEFASLYYKELHPFQKSQTFKSVESFQSPQRKSMPPLSLTPVNNDIFDRVSAINRPNNYVDSETQTIDNMAVPNLKLSPTITSKSLSSTKEIAAPDNINGSKIVRSLSSKLKKVITGESRGNSPIKSRQNTGDSIRSAFGKLRHGFTGNSVNNSRSASFDNNNVNGNGNNTNRRLVSSSTSSFPKFNSDTKRKEESDKNQRLEKRRSMPPSILSDFDQHERNNSRTGSRDYYRSHSPVKKTQASAKTTSKPTLIPDNGNVNINQEKKESIQRRVHNLLKSSDDPVTYKSASGYGKYTDIGTETSNRHSSVRITPITEEKFKKTLKDGVLDIKTKSNGKDKSRPPRPPPKPLHLRTEIQKIRNFSRLQSKKLPIERISSEATETIVDVNVDDLEADFRKRFPSKV
medrep (log2 median colony size normalized to plate background, PCA score) [1, 2]: 1.8519 | Score ([1]; bait SLA1-2, label = prey): 1 | Ratio (SH3-deleted/WT medrep) ([1]; bait SLA1-2, label = prey): 0.1 | medrep (log2 median colony size normalized to plate background, PCA score) [1, 3]: 1.8519 | Score ([1]; bait SLA1-3, label = prey): 0 | medrep (log2 median colony size normalized to plate background, PCA score) (ABP1): 4.25

B2: YBL071W-A (protein, UniProt Q3E840 1-82, looked up)
Diphthamide biosynthesis …: MSTYDEIEIEDMTFEPENQMFTYPCPCGDRFQIYLDDMFEGEKVAVCPSCSLMIDVVFDKEDLAEYYEEAGIHPPEPIAAAA
medrep (log2 median colony size normalized to plate background) (Abp1 PPIs): 1.454 | medsize (median colony size) (Abp1 PPIs): 388 | medrep (log2 median colony size normalized to plate background, PCA score) (ABP1): 1.99 | Ratio (SH3-deleted/WT medrep) (ABP1; only significant differences showed, PPIs completely lost have a ratio of 0.1 and the gained PPIs 2.5): 1.369

B3: YGR037C (protein, UniProt P31787 1-87, looked up)
Acyl-CoA-binding protein: MVSQLFEEKAKAVNELPTKPSTDELLELYALYKQATVGDNDKEKPGIFNMKDRYKWEAWENLKGKSQEDAEKEYIALVDQLIAKYSS
medrep (log2 median colony size normalized to plate background, PCA score) [1, 2]: 1.385 | Score ([1]; bait SLA1-2, label = prey): 1 | Ratio (SH3-deleted/WT medrep) ([1]; bait SLA1-2, label = prey): 0.1 | medrep (log2 median colony size normalized to plate background, PCA score) [1, 3]: 1.385 | Score ([1]; bait SLA1-3, label = prey): 1 | Ratio (SH3-deleted/WT medrep) ([1]; bait SLA1-3, label = prey): 0.1 | medrep (log2 median colony size normalized to plate background, PCA score) (ABP1): 3.115

B4: YJL201W (protein, UniProt P32525 1-599, looked up)
Protein ECM25: MIDINVNNIFFRSYSVDPNSGHAIYVFDSTYLPASDEIGDKQVYDLLINALMDRLVMKLPQAPYSLVIFSSGFSQRKISWVYGIKMFAKLPKETKFYLQKIFIVHESFFVRSVYQVISNAMNFNFLDSKDSQHDFPSLVHVLDLTSLSELIDITRLRISLNVYLYDYQIREHINVPEEYYNRLTPLAIRQYRQLVFDKIFKKLQNDALLCELIFQKPGNYKKVNIFLDIIKRNNYIDLSQWDIYSLASVWLNYFIKNKAKPLIPIELIPLPIVDDLKFTSETFRKIIKFNQYQDLFMVIIPFFNRIIAHGESTKHDSRTLSKALTPALCKEKLSMMTNDRLAIGSRYIKNLLDFFPEIAKEISSPPSSVSSSSTIPVLPKPRKSSPTRYSELGCLTLPRSRSPSPQRSVTSPTYTPVALQNTPVLKPKSSSRNVSSPSFNAKPPLPIKAVTRPQLSLTSNSNTDLALASSSTDTLSSPTKTPSADSLPLSNSSTDLTISDNIKEMVKDEPAKDKNSVETDIFVQQFESLTLVQNAKIKKFDKELQEKKKKNETTSKTADKFSQKGYSDIKASNKVSRLAALYEERLQGLQVMNEMKQRW
medrep (log2 median colony size normalized to plate background, PCA score) [1, 2]: 1.384 | Score ([1]; bait SLA1-2, label = prey): 1 | Ratio (SH3-deleted/WT medrep) ([1]; bait SLA1-2, label = prey): 0.1 | medrep (log2 median colony size normalized to plate background, PCA score) [1, 3]: 1.384 | Score ([1]; bait SLA1-3, label = prey): 0 | medrep (log2 median colony size normalized to plate background, PCA score) (ABP1): 3.816
